Measured values reported in PMC8782923, “A Klotho-derived peptide protects against kidney fibrosis by targeting TGF-β signaling” (Nature Communications, 2022).
Blank lines part the entries; values can stand above or below the binder they belong to. Ends that are not written are not given here.

Key:
Conditions in all cases: both partners purified
[1] = target: T1, Human TβR2 (10358-H08B; Sino Biological Inc.) (human, UniProt P37173 23-166); test: microplate-based fluorescence direct binding assay; TβR2 (10 μg/ml) or BSA coated on a 96-well microplate; FITC-peptide at 50 μg/ml, 1 h at room temperature, washed four times, fluorescence read
T1 construct: TGF-β receptor 2, human; source: bought: Sino Biological Inc

[2] = target: T2, Recombinant TGF-β receptor 2 protein (10358-H03H-B; Sino Biological Inc.) (UniProt P37173 23-166); test: SPR; Biacore T200, 25 °C; TβR2 amine-coupled to a CM5 chip; peptides in PBS injected at 60 μl/min, 180 s injection, 540 s dissociation; 1:1 binding model
T2 construct: TGF-β receptor 2, recombinant, 43.4 kDa; also called TβR2; type 2 TGF-β receptor; source: bought: Sino Biological Inc. (>95% as determined by SDS-PAGE)

[3] = target: T3, Recombinant TGF-β receptor 2 protein (UniProt P37173 23-166); test: SPR; Biacore T200, 25 °C; TβR2 amine-coupled on a CM5 chip (50 µg/ml in 10 mM acetate pH 4.0); peptides in PBS injected at 60 µl/min, 180 s association, 540 s dissociation; 1:1 binding model
T3 construct: TGF-β receptor 2, recombinant, 43.4 kDa, >95% by SDS-PAGE; By its catalogue number probably a human extracellular domain with a carrier tag, biotinylated (surmise); The TβR2 of the microplate assay (10358-H08B) is called human; also called TβR2; type 2 TGF-β receptor; source: bought: Sino Biological Inc. (10358-H03H-B)
T3 sequence (P37173 23-166): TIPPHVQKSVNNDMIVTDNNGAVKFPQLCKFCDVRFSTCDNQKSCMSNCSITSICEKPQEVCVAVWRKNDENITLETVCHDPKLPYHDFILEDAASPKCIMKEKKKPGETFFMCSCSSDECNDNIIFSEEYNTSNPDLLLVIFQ

T2 sequence (P37173 23-166): as above
T1 sequence (P37173 23-166): as above

- binding result [1]: binds
B1: FITC-labeled KP1 (peptide, UniProt Q9UEF7 57-86, looked up)
peptide: FQGTFPDGFLWAVGSAAYQTEGGWQQHGKG
modifications: also: FITC label, position not given here
notes: Klotho, human; peptide of 30 amino acids from Phe57 to Gly86; also called FITC-KP1; source: synthetic peptide, labeled with fluorescein isothiocyanate (FITC)

- Kd [2]: 1.41 µM
- koff [2]: 0.00058 s⁻¹
- kon [2]: 408 M⁻¹ s⁻¹
B2: Klotho-derived peptide 1 (KP1) (peptide, UniProt Q9UEF7 57-86, looked up)
peptide: B1 peptide
notes: Klotho, human; peptide of 30 amino acids from Phe57 to Gly86; 3.229 kDa; the results give Phe57 to Gly86; source: synthetic peptide (GenScript, >95% purity)

- koff [3]: 0.000578 s⁻¹
B3: Klotho-derived peptide 1 (peptide, UniProt Q9UEF7 57-86, looked up)
peptide: B1 peptide
notes: Klotho, human, 30 amino acids from Phe57 to Gly86; 3.229 kDa; also called KP1; source: synthetic peptide (GenScript, >95% purity)
